Our source for the protein stability index values is the supplement of paper PMC10724198.

± gives the standard deviation of the averaged measurements.

This series relates to Saccharomyces cerevisiae. Put plainly: protein stability index of tFT-peptide fusion (C-terminal peptide) (PSI (0-1 scale)); higher = more stable (slower turnover). Conditions: genetic background: wild type; temperature: 30 C.
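Note: PSI is a weighted mean of sequencing reads over stability bins, variants kept only with over 10 reads, mCherry proximal and sfGFP distal, peptide attached via GGGS linker.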

In turn, WWEGSFRGGAVR gave a protein stability index of 0.592 ± 0.094.

Regarding WYSSSRDLSVSG, the protein stability index is 0.731 ± 0.0076.

In turn, YASKNPSVVIFG returned a protein stability index of 0.68 ± 0.018.

Turning to YATLGPDRALVR, the protein stability index came out at 0.655 ± 0.0095.

Consider YAVGWLLGGLWD, for which the protein stability index turned out to be 0.765 ± 0.053.

YCGCLGYATGRV came in with a protein stability index of 0.671 ± 0.017.

As to YCGLQSWLGVGG, the protein stability index worked out at 0.677 ± 0.0076.

For the sequence YCMRPLCLEMFR, the protein stability index stood at 0.682 ± 0.016.

In the case of YCPLSRTQSSAR, the protein stability index worked out at 0.859 ± 0.18.

Consider YCPVFSLPPFFR, for which the protein stability index was 0.664 ± 0.086.

Sequence YCRSFSGPFFDI showed a protein stability index of 0.745 ± 0.094.

Consider YCTMHLQLLQHS, for which the protein stability index was 0.578 ± 0.012.

Sequence YDLLLYGGATSP had a protein stability index of 0.757 ± 0.084.

YDRFVNGKSPGM: the protein stability index turned out to be 0.701 ± 0.06.

As to YDSGNWPGFRCQ, the protein stability index was determined as 0.73 ± 0.055.

YDVLGLFPICKW: the protein stability index is 0.729 ± 0.06.

Sequence YEHPRLRNGSIM registered a protein stability index of 0.8 ± 0.24.

Sequence YFCCFIPFFFDC showed a protein stability index of 0.663 ± 0.069.

Regarding YFETNINKYLRM, the protein stability index was determined as 0.7107 ± 0.00072.

With YFFECFKECREQ, the protein stability index came out at 0.749 ± 0.015.

In the case of YGGCGFEEEGVR, the protein stability index was determined as 0.73 ± 0.02.

For the sequence YGGSLLNVFGLG, the protein stability index was 0.645 ± 0.0078.

In turn, YGIGVRMPRSYW returned a protein stability index of 0.709 ± 0.035.

For YGPRNRNPPNAG, the protein stability index was 0.688 ± 0.099.

In turn, YHPPLDHHQCTE gave a protein stability index of 0.648 ± 0.063.

Turning to YHPPLTIQSLGH, the protein stability index was 0.694 ± 0.029.

Sequence YIGLPVSALTIF gave a protein stability index of 0.574 ± 0.1.

Sequence YILSSFPSCLVL registered a protein stability index of 0.64 ± 0.034.

Turning to YINRKKKKINKT, the protein stability index worked out at 0.675 ± 0.066.

For YKGGDEVKTKKK, the protein stability index is 0.656 ± 0.035.

YKRRYTKNQIRK registered a protein stability index of 0.666 ± 0.054.

For the sequence YKSKQKAQQKAK, the protein stability index is 0.64 ± 0.13.

For YLFSLSSSLFIL, the protein stability index was determined as 0.56 ± 0.0085.

On to YLPLPPLTPPPR, for which the protein stability index was 0.776 ± 0.036.

As to YLPSTAHSAHPP, the protein stability index came to 0.737 ± 0.045.

Turning to YLQPSGSRPGAK, the protein stability index was determined as 0.715 ± 0.014.

In the case of YLRSMIPKELAV, the protein stability index worked out at 0.605 ± 0.023.

Consider YMIPVPFSNLCL, for which the protein stability index was 0.66 ± 0.011.

YMSHPHGPLCLS returned a protein stability index of 0.75 ± 0.21.

For the sequence YPAVNLVPPPDV, the protein stability index was determined as 0.675 ± 0.013.

With YPGPFTGCSKIQ, the protein stability index is 0.676 ± 0.069.

In the case of YPGVSRCGTRWV, the protein stability index is 0.643 ± 0.046.

Sequence YPHAGSTSLLLF came in with a protein stability index of 0.685 ± 0.0073.

On to YPLRVSRCWSPP, for which the protein stability index was 0.773 ± 0.1.

Consider YPPGSPVPPGLP, for which the protein stability index worked out at 0.671 ± 0.0076.

Take YPRGFPTLSYSS: the protein stability index stood at 0.727 ± 0.023.

As for YPRPIPSISRTS, the protein stability index was determined as 0.731 ± 0.053.

In the case of YQAVRGRVFVAL, the protein stability index stood at 0.638 ± 0.044.

For YQFGFLPAFPAC, the protein stability index came to 0.7 ± 0.013.

Sequence YRARRRPPPSPP displayed a protein stability index of 0.682 ± 0.045.

With YREPKISEMLQE, the protein stability index came to 0.621 ± 0.017.

YRIWFSSFLHPT showed a protein stability index of 0.741 ± 0.18.

The sequence YRPPFPAALFSE had a protein stability index of 0.6962 ± 0.0034.

YRRASGGTVEDM gave a protein stability index of 0.721 ± 0.024.

As for YRSPPPLRGLIP, the protein stability index came out at 0.711 ± 0.088.

For YRTCLHRGRQML, the protein stability index was 0.68188 ± 0.00019.

Take YRTPCPPLSPHS: the protein stability index is 0.719 ± 0.062.

In turn, YRVFTANYEYEQ showed a protein stability index of 0.724 ± 0.023.

YSGFVVGASDTL displayed a protein stability index of 0.601 ± 0.18.

Regarding YSHSRVNPDAWG, the protein stability index is 0.669 ± 0.11.

Consider YSRGVSGSDKFP, for which the protein stability index turned out to be 0.747 ± 0.16.

Sequence YSVSAALPREFR showed a protein stability index of 0.773 ± 0.062.

For the sequence YTLPVHPAFVFP, the protein stability index was found to be 0.683 ± 0.071.

As to YTPDFPTIVSFI, the protein stability index was found to be 0.694 ± 0.14.

The sequence YTSTSTILRPFP came in with a protein stability index of 0.676 ± 0.078.

In turn, YVAGECVFVCWE returned a protein stability index of 0.657 ± 0.04.

For YVARERWEGCRI, the protein stability index was found to be 0.7 ± 0.0077.

As to YVGAENRGVQGW, the protein stability index was found to be 0.723 ± 0.016.

YVKHTVKVSGHK displayed a protein stability index of 0.665 ± 0.0098.

YVRCSVKCHILT: the protein stability index amounted to 0.609 ± 0.029.

YWFVFGEFSGGR displayed a protein stability index of 0.716 ± 0.042.

YWPPIRSILPQY displayed a protein stability index of 0.67 ± 0.033.

In the case of YYAGFTAFGSLA, the protein stability index is 0.709 ± 0.079.

With YYVGLHSFSILQ, the protein stability index came to 0.729 ± 0.076.
